From PMC6249979

Target: Flag-actin-WT, P60709
Assay: co-immunoprecipitation with anti-Flag magnetic beads, competition with purified MRTF-A (2-261), immunoblot quantification
Conditions: chain shown with the change; NIH 3T3 cells co-expressing Flag-actin-WT and myc-JMY constructs, serum-starved for 24 h post transfection; purified MRTF-A (2-261) added to the lysates prior …; parent: est. 0.97; read off a plot

- other: relative amount of MRTF-A bound to Flag-actin (competition by co-expressed JMY): 0.59
B1: myc-JMY-f.l., Q9QXM1 R961E (protein)
chain: MSFALEETLESDWVAVRPHVFDEREKHKFVFIVAWNEIEGKFAITCHNRTAQRQRSGSREQAGTPASDGSRGPGSPAARGRSEAAASATAALRSPGPRKSQAWAEGGSPRSARSLKGDPPRGPAGRGPESPLRSPARAKASPLRRSAESRDAIASATPVPPAPPVPPVSSVRVVSASGAVSEEIEVLEMVREDEAPQPLPDSEQPPSAAELESSAEECSWAGLFSFQDLRAVHQQLCSVNSQLEPCLPVFPEEPSGMWTVLFGGAPEMTEQEIDALCYQLQVYLGHGLDTCGWKILSQVLFTETDDPEEYYESLSELRQKGYEEVLQRARRRIQELLDKHKTIESMVELLDLYQMEDEAYSSLAEATTELYQYLLQPFRDMRELAMLRRQQIKISMENDYLGPRRIESLQKEDADWQRKAHMAVLSIQDLTVKYFEITAKAQKAVYDRMRADQKKFGKASWAAAAERMEKLQYAVSKETLQMMRAKEICLEQKKHALKEEMQSLQGGTEAIARLDQLESDYYDLQLQLYEVQFEILKCEELLLTAQLESIKRLISEKRDEVVYYDTYESMEAMLEKEEMAASVHAQREELQKLQQKARQLEARRGRVSAKKAYLRNKKEICIAKHHEKFQQRFQSEDEYRAHHTIQIKRDKLHDEEERKSAWVSQERQRTLDRLRTFKQRYPGQVILKSTRLRVAHSRRKSTASPVPCEEQCHSLPTVLQGQEKTEVGGGGSQLGPSQTAEPQSLVQLEDTSSEQLESTSLPPRAVVSSELPPPQSAPLLTSIDPKPCSVTIDPLPPPLPPTPPPPPPPPPPPPPPLPVAKDNGASTTAETLEKDALRTEGNERSIPKSASAPAAHLFDSSQLVSARKKLRKTVEGLQRRRVSSPMDEVLASLKRGSFHLKKVEQRTLPPFPDEDDSNNILAQIRKGVKLKKVQKEVLRESFTLLPDTDPLTRSIHEALREIKEASPESEDEEEALPCTDWEN
